Data reported in US20250129170A1 (IMMUNEDGE, published 2025).

T1: soluble hetero-EPOR (EPOR-CD131-Fc) (human, UniProt P19235 25-250; P32927 17-443)
T1 construct: extracellular domain; also called soluble EPOR-CD131-Fc; not shown: human Fc (captured by anti-human Fc)
T1 sequence (looked up) 1: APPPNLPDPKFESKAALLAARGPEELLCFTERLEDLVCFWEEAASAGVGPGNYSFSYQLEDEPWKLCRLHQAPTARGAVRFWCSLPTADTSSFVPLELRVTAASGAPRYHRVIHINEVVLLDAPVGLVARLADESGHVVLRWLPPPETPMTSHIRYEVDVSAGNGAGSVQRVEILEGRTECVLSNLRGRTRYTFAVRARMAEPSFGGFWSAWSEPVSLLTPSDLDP
T1 sequence (looked up) 2: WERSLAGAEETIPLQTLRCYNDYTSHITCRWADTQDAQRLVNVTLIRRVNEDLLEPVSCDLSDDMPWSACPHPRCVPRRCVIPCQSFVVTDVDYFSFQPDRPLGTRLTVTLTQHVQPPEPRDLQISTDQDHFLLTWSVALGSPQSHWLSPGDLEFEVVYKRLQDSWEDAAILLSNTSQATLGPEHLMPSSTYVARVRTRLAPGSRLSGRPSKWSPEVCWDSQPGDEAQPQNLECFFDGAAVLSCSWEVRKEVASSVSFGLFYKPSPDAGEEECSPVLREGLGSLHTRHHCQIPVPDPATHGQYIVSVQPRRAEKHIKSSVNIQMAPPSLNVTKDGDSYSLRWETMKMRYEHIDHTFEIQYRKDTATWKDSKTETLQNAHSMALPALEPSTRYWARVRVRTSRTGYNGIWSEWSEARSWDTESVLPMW

T2: hCD131-Fc (IME021, inhouse) (human, UniProt P32927 17-443, limits assumed)
T2 construct: also called soluble CD131 subunit of hetero-EPOR; not shown: Fc
T2 sequence (looked up): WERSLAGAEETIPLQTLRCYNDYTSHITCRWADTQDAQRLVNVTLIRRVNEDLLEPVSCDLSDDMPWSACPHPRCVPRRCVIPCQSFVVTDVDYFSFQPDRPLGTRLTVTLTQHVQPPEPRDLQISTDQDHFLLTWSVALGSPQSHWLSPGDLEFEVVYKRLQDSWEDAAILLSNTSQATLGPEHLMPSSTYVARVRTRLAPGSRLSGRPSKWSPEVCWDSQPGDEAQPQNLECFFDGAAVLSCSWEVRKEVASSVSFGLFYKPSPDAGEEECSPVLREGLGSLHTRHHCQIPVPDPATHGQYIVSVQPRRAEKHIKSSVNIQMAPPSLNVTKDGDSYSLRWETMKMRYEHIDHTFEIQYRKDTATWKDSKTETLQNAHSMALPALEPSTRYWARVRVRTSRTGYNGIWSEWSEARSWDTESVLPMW

T3: human CD131 on 293T/CD131 cells (human, UniProt P32927 17-897)
T3 construct: whole, on cells; also called hCD131
T3 sequence (looked up): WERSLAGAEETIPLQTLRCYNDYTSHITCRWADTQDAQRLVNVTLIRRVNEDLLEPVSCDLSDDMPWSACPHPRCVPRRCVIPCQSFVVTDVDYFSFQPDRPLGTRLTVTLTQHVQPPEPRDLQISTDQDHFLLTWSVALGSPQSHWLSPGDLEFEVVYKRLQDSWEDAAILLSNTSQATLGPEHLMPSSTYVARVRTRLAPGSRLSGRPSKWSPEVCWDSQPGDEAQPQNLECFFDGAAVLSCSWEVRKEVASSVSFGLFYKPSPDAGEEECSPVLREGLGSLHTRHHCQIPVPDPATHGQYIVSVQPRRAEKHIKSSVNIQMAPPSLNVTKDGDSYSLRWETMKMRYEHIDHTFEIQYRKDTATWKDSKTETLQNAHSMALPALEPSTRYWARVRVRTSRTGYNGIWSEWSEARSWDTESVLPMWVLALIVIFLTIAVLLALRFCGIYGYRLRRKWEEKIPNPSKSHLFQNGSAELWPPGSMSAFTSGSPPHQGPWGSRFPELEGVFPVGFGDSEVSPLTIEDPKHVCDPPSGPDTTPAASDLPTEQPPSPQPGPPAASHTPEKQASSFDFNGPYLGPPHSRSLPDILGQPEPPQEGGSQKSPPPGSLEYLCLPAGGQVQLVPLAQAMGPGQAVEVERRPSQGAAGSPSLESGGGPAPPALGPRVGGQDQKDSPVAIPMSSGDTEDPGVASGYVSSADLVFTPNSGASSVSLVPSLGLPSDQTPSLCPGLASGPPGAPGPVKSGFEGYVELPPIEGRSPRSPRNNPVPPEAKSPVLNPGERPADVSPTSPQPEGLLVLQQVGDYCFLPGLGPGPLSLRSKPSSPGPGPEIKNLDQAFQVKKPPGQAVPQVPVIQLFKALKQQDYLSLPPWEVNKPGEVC


molecular target: T1, soluble hetero-EPOR (EPOR-CD131-Fc); assay: Octet BLI, EPOR-CD131-Fc on anti-human Fc sensor, 10 nM EPO +/- hybridoma supernatant; competitor EPO

| Binder | % Inhibition [%] |
| --- | --- |
| EPORab - M9 (antibody, V domains shown, hybridoma supernatant, ATX-GK mouse; also called hybridoma clone M9) VH: QVQLQESGPGLVKPSQTLSLTCDISGDSVSSNSAAWNWIRQSPSRGLEWLGRTYYRSKWYNDYAVAVKSRITINPDTSKNQFSLQLNSVTPEDTAVYYCARESSGWYEDYYYYYMDVWGKGTTVTVSS VL: not shown | 18.1 |
| EPORab - M1 (antibody, V domains shown, hybridoma supernatant, ATX-GK mouse; also called hybridoma clone M1) VH: QVQLQESGPGLVKPSQTLSLTCTVSGGSISSGGYYWSWIRQHPGKGLEWIGNIYYSGNPYYNPSLKSRLIISVDTSKNQFSLRLNSVTAADTAVYYCATFYYGSGSYYNEDYWGQGTLVTVSS VL: DIQMTQSPSSLSASVGDRVTITCRASQGIRIDLGWYQQKPGKAPKRLIYAASSLKSGVPSRFSGSGSGTEFTLTISSLQPEDFTTYFCLQHNSYPYTFGQGTKLEIK | 31.2 |
| EPORab - M52 (antibody, V domains shown, hybridoma supernatant, ATX-GK mouse; also called hybridoma clone M52) VH: QLQLQESGPGLAKPSETLSLTCTVSGVSISSNSYYWGWIRQPPGKGLEWIGNIYHSGRTYYNPSLRSRVTISVDTSKNQFSLKLNSVTAADTAVYYCARGYSYGAFDYWGQGTLVTVSS VL: DIQMTQSPSSLSASVGDRVTITCRASQGIRNDLGWYQQKPGKAPKRLIYAASSLQSGIPSRFSGSGSGTEFTLTISSLQPEDFATYYCLQHNNYPWTFGQGTKVEIK | 7.4 |
| EPORab - M2 (antibody, V domains shown, hybridoma supernatant, ATX-GK mouse; also called hybridoma clone M2) VH: QVQLVESGGGLVKPGGSLRLSCAASGFTFSDSYMSWIRQAPGKGLEWVSYISNSGSYMYYADSVKGRFTISRDNAKNSLYLQMNNLRAEDTAVYYCARDKLGIGDYWGQGTLVTVSS VL: DIQMTQSPSSLSASVGDRVTITCRASQGIRNDLGWFQQKPGKAPKRLIYAASRLQSGVPSRFSGSGSGTEFTLTISSLQPEDFATYCCLQHHTYPPTFGQGTKVEIK | 93.6 |
| EPORab - M37 (antibody, V domains shown, hybridoma supernatant, ATX-GK mouse; also called hybridoma clone M37) VH: QVQLQESGPGLVKPSGTLSLTCAVSGGSITTNNWWSWVRQSPGKGLEWIGEIYHSGNTNYNPSLKSRVTMSVDKSKNQFSLNLNSVIVADTAVYYCASALGTYYGAFDTWGQGTMVTVSA VL: DIQMTQSPSSLSASVGDRVTITCRASQSISNYLNWYQQKPGKAPKLLIYAASSLQSGVPSRFSGSGSGTDFTLTISSLQPEDFTTYYCQQSYGTPYTFGQGAKLQIK | -7.1 |
| EPORab - M43 (antibody, V domains shown, hybridoma supernatant, ATX-GK mouse; also called hybridoma clone M43) VH: QVQLQESGPGLVKPSGTLSLTCAVSGGSISSSNWWSWVRQPPGKGLEWIGEIYHSGSINYNPSLKSRVTISVDKSKNQFSLKLTSVTAADTAVYYCASALGNYYGAFDLWGQGTMVTVSS VL: DIVMTQSPSSLSASVGDRVTITCRASQTISSYLNWYQQKPGKAPKLLICAASSLQGGVPSRFSGSGSGTDFTLTISSLQPEDFAPYYCQQSYSTPYTFGQGTKLEIK | -11.4 |
| EPORab - M41 (antibody, V domains shown, hybridoma supernatant, ATX-GK mouse; also called hybridoma clone M41) VH: QVQLVESGGGLVQPGRSLRLSCAASGFTFDDYAIHWVRQAPGKGLEWVSGISYNSENIGYADSVKGRFTISRDNAKNSLYLQMNSLRSEDTALYYCAKDMFLTWFSSFDYWGQGTLVTVSS VL: ETKLTQSPGTLSLSPGERTTLSCRASQSISNNYLAWYQQKPGQAPRLLIYRASTRATGIPDRFSGSGSGTDFTLTIRRLEPEDFAVYYCQRYGRSPLTFGGGTKVEIK | 18.7 |
| EPORab - M19 (antibody, V domains shown, hybridoma supernatant, ATX-GK mouse; also called hybridoma clone M19) VH: QLQLQESGPGLVKPSETLSLTCTVSGGSISSSNHYWGWIRQPPGKGLEWIGTLYYSGSTYYEPSLKSRVTISVDTSMNQFSLNLSSVTATDTAVYNCARGDRYGPFDYWGQGTLVTVSS VL: DIVMTQSPSSLSASVGDRVTITCRASQGIRDDLGWYQQKPEKAPKRLICAASSLQSGVPSRFSGSGSGTEFTLTISSLQPEDFATYYCLQYNRYPWTFGQGTKVEIK | 10.4 |
| EPORab - M26 (antibody, V domains shown, hybridoma supernatant, ATX-GK mouse; also called hybridoma clone M26) VH: QVQLVQSGVEVKKPGASVKVSCKASGYAFSNNDISWVRQAPGQGLEWMAWITTSNGNTNYAPKLQGRVTMTTDTSTSTAYMELRSLKSDDTAVYYCARGGRTGYFDYWGQGTLVTVSS VL: not shown | 31.3 |
| EPORab - M38 (antibody, V domains shown, hybridoma supernatant, ATX-GK mouse; also called hybridoma clone M38) VH: QVQLVESGGGVVQPGRSLRLSCAASGFTFSSYGMHWVRQAPGKGLEWVAFIWYDGRNKNYVDSVKGRFTISRDNSKNTLYLQMNSLRAEDTAVYYCARDRGDYVFDYWGQGTLVTVSS VL: not shown | 0.5 |
| EPORab - M24 (antibody, V domains shown, hybridoma supernatant, ATX-GK mouse; also called hybridoma clone M24) VH: EVQLVESGGGLVKPGGSLRLSCAASGFTFTNAWMNWVRQAPGKGLEWIGRIKSKTAGETTDYAAPVKGRFTISRDDSKNTLYLQMNSLKTEDTAVYYCTTDPDYGDPYYYYYFMDVWGKGTTVTVSS VL: DIQMTQSPSSLSASIGDRVTISCRASQSISSYLNWYQQKPGKAPKLLIYGASSLQSGVPSRFSGSGSGTDFTLTISSLQPEDFATYYCQQSYSLPLTFGGGTKVEIK | 9.5 |

Second part, the binder after the results:

| % Inhibition [%] | Binder |
| --- | --- |
| -1.8 | EPORab - M80 (antibody, V domains shown, hybridoma supernatant, ATX-GK mouse; printed VH equals that of M2; also called hybridoma clone M80) VH: QVQLVESGGGLVKPGGSLRLSCAASGFTFSDSYMSWIRQAPGKGLEWVSYISNSGSYMYYADSVKGRFTISRDNAKNSLYLQMNNLRAEDTAVYYCARDKLGIGDYWGQGTLVTVSS VL: not shown |
| 11.5 | EPORab - M87 (antibody, V domains shown, hybridoma supernatant, ATX-GK mouse; also called hybridoma clone M87) VH: QVQLVQSGAEVKKPGASMKVSCKASGYTFTQNHISWVRQAPGQGLEWMGWISAYSGNTNYAWKFQGRVTMTTDTSTNTAYMELRSLRSDDTAVYYCARDRGNWNDFAYWGRGTLVTVSS VL: not shown |
| 16 | EPORab - M54 (antibody, V domains shown, hybridoma supernatant, ATX-GK mouse; also called hybridoma clone M54) VH: QLQLQESGPGLVKPSETLSLTCSVSGGSISSSGYYWGWIRQPPGKGLDWIGTIYYSGNTNYNPSLNSRVTISVDTSRNQFSLKLRSVTAADTAVYYCARGYSYGPFDYWGQGTLVTVSS VL: EIVMTQSPATLSVSPGERATLSCRASQSVSSNLAWYQLKPGQAPRLLIYGASTRATGIPARFSGSGSGTEFTLTISSLQSEDFAVYYCHPYNNWPLTFGGGTKVEIK |
| 0.1 | EPORab - M71 (antibody, V domains shown, hybridoma supernatant, ATX-GK mouse; also called hybridoma clone M71) VH: QVQLVESGAEVKKPRASVKVSCKTSGYTFTRHYMHWVRQAPGQGLEWMGIINPNNNSTSYAQKFQGRITMTRDTSTSTVYMELSSLRSEDTAVYYCARFRIVGTTLYFDYWGQGTLVTVSS VL: EIVMTQSPATLSVSPGERATLSCRASQSVSSNLAWYQLKPGQAPRLLIYGASTRATGIPARFSGSGSGTEFTLTISSLQSEDFAVYYCHPYNNWPLTFGGGTKVEIK |

molecular target: T2, hCD131-Fc (IME021, inhouse); assay: Octet BLI, antibody from supernatant captured on anti-mouse Fc biosensors, 30 nM soluble receptor Fc fusion

| binding result | Binder |
| --- | --- |
| binds | hybridoma clone M26 (antibody, V domains shown, Hybridoma from ATX-GK mice; also called EPORab - M26) VH: QVQLVQSGVEVKKPGASVKVSCKASGYAFSNNDISWVRQAPGQGLEWMAWITTSNGNTNYAPKLQGRVTMTTDTSTSTAYMELRSLKSDDTAVYYCARGGRTGYFDYWGQGTLVTVSS VL: not shown |

molecular target: T3, human CD131 on 293T/CD131 cells; assay: flow cytometry on 293T/CD131 cells, purified antibody, PE labeled secondary antibody

| binding result | Binder |
| --- | --- |
| no binding | hybridoma clone M2 (antibody, V domains shown, Hybridoma from ATX-GK mice; tested as supernatant (BLI) and purified (cell staining, Stat5 assay); also called EPORab - M2) VH: QVQLVESGGGLVKPGGSLRLSCAASGFTFSDSYMSWIRQAPGKGLEWVSYISNSGSYMYYADSVKGRFTISRDNAKNSLYLQMNNLRAEDTAVYYCARDKLGIGDYWGQGTLVTVSS VL: DIQMTQSPSSLSASVGDRVTITCRASQGIRNDLGWFQQKPGKAPKRLIYAASRLQSGVPSRFSGSGSGTEFTLTISSLQPEDFATYCCLQHHTYPPTFGQGTKVEIK |
| no binding | hybridoma clone M41 (antibody, V domains shown, Hybridoma from ATX-GK mice; tested as supernatant (BLI) and purified (cell staining, Stat5 assay); also called EPORab - M41) VH: QVQLVESGGGLVQPGRSLRLSCAASGFTFDDYAIHWVRQAPGKGLEWVSGISYNSENIGYADSVKGRFTISRDNAKNSLYLQMNSLRSEDTALYYCAKDMFLTWFSSFDYWGQGTLVTVSS VL: ETKLTQSPGTLSLSPGERTTLSCRASQSISNNYLAWYQQKPGQAPRLLIYRASTRATGIPDRFSGSGSGTDFTLTIRRLEPEDFAVYYCQRYGRSPLTFGGGTKVEIK |
